From patent US20210032299A1 (Eli Lilly, published 2021)
Starred links: 1 amine or outer side, 2 acyl side, 3 side chain; linkers in the order of their positions; H or OH if unused. Non-standard residues stand in square brackets, D forms with d. Groups on a side chain read outwards from the residue. No end group written: not given here. *: point of attachment. C20 diacid = O=C(O)CCCCCCCCCCCCCCCCCCC(=O)*; γGlu = O=C(O)[C@H](CCC(=O)[*:2])N[*:1]; αMeY = C[C@](N)(Cc1ccc(O)cc1)C(=O)O; 4Pal = N[C@@H](Cc1ccncc1)C(=O)O; αMeL = CC(C)C[C@](C)(N)C(=O)O; AEEA = NCCOCCOCC(=O)O; Aib = CC(C)(N)C(=O)O

T1: human glucose-dependent insulinotropic polypeptide (GIP) receptor (human, UniProt P48546 22-466)
T1 construct: whole, on cells; Assayed as crude membranes of stably transfected CHO cells; also called hGIPR; human GIP receptor
T1 sequence (looked up): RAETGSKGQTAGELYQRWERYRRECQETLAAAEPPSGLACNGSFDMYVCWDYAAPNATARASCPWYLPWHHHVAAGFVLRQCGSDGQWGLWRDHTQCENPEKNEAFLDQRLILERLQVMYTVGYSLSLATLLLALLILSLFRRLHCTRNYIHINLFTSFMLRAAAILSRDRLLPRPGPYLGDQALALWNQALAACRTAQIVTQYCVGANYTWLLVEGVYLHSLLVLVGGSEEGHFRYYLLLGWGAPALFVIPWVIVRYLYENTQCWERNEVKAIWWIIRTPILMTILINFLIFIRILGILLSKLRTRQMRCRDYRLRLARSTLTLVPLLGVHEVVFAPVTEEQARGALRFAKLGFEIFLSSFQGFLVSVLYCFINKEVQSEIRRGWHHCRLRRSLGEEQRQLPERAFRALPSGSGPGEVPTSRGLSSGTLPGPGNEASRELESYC

B1: Example 8 (peptide)
peptide: Y[Aib]EGTFISDYSILLDKK([AEEA-AEEA-γGlu-C20 diacid])AQ[Aib]DFVNWLLAQGPSSGAPPPS-NH2
modifications: N-terminus assumed
SMILES: CC[C@H](C)[C@H](NC(=O)[C@H](CO)NC(=O)[C@H](Cc1ccc(O)cc1)NC(=O)[C@H](CC(=O)O)NC(=O)[C@H](CO)NC(=O)[C@@H](NC(=O)[C@H](Cc1ccccc1)NC(=O)[C@@H](NC(=O)CNC(=O)[C@H](CCC(=O)O)NC(=O)C(C)(C)NC(=O)[C@@H](N)Cc1ccc(O)cc1)[C@@H](C)O)[C@@H](C)CC)C(=O)N[C@@H](CC(C)C)C(=O)N[C@@H](CC(C)C)C(=O)N[C@@H](CC(=O)O)C(=O)N[C@@H](CCCCN)C(=O)N[C@@H](CCCCNC(=O)COCCOCCNC(=O)COCCOCCNC(=O)CC[C@H](NC(=O)CCCCCCCCCCCCCCCCCCC(=O)O)C(=O)O)C(=O)N[C@@H](C)C(=O)N[C@@H](CCC(N)=O)C(=O)NC(C)(C)C(=O)N[C@@H](CC(=O)O)C(=O)N[C@@H](Cc1ccccc1)C(=O)N[C@H](C(=O)N[C@@H](CC(N)=O)C(=O)N[C@@H](Cc1c[nH]c2ccccc12)C(=O)N[C@@H](CC(C)C)C(=O)N[C@@H](CC(C)C)C(=O)N[C@@H](C)C(=O)N[C@@H](CCC(N)=O)C(=O)NCC(=O)N1CCC[C@H]1C(=O)N[C@@H](CO)C(=O)N[C@@H](CO)C(=O)NCC(=O)N[C@@H](C)C(=O)N1CCC[C@H]1C(=O)N1CCC[C@H]1C(=O)N1CCC[C@H]1C(=O)N[C@@H](CO)C(N)=O)C(C)C
B2: Example 89 (peptide)
peptide: Y[Aib]EGTLISDYSI[αMeL]LDKK([AEEA-AEEA-γGlu-C20 diacid])HQ[Aib]DFVE[4Pal]LLEAGPSSGAPPPS-NH2
modifications: N-terminus assumed
SMILES: CC[C@H](C)[C@H](NC(=O)[C@H](CC(C)C)NC(=O)[C@@H](NC(=O)CNC(=O)[C@H](CCC(=O)O)NC(=O)C(C)(C)NC(=O)[C@@H](N)Cc1ccc(O)cc1)[C@@H](C)O)C(=O)N[C@@H](CO)C(=O)N[C@@H](CC(=O)O)C(=O)N[C@@H](Cc1ccc(O)cc1)C(=O)N[C@@H](CO)C(=O)N[C@H](C(=O)N[C@@](C)(CC(C)C)C(=O)N[C@@H](CC(C)C)C(=O)N[C@@H](CC(=O)O)C(=O)N[C@@H](CCCCN)C(=O)N[C@@H](CCCCNC(=O)COCCOCCNC(=O)COCCOCCNC(=O)CC[C@H](NC(=O)CCCCCCCCCCCCCCCCCCC(=O)O)C(=O)O)C(=O)N[C@@H](Cc1c[nH]cn1)C(=O)N[C@@H](CCC(N)=O)C(=O)NC(C)(C)C(=O)N[C@@H](CC(=O)O)C(=O)N[C@@H](Cc1ccccc1)C(=O)N[C@H](C(=O)N[C@@H](CCC(=O)O)C(=O)N[C@@H](Cc1ccncc1)C(=O)N[C@@H](CC(C)C)C(=O)N[C@@H](CC(C)C)C(=O)N[C@@H](CCC(=O)O)C(=O)N[C@@H](C)C(=O)NCC(=O)N1CCC[C@H]1C(=O)N[C@@H](CO)C(=O)N[C@@H](CO)C(=O)NCC(=O)N[C@@H](C)C(=O)N1CCC[C@H]1C(=O)N1CCC[C@H]1C(=O)N1CCC[C@H]1C(=O)N[C@@H](CO)C(N)=O)C(C)C)[C@@H](C)CC
B3: Example 90 (peptide)
peptide: Y[Aib]EGTFISDYSI[αMeL]LDKK([AEEA-AEEA-γGlu-C20 diacid])HQ[Aib]DFVE[αMeY]LLEAGPSSGAPPPS-NH2
modifications: N-terminus assumed
SMILES: CC[C@H](C)[C@H](NC(=O)[C@H](Cc1ccccc1)NC(=O)[C@@H](NC(=O)CNC(=O)[C@H](CCC(=O)O)NC(=O)C(C)(C)NC(=O)[C@@H](N)Cc1ccc(O)cc1)[C@@H](C)O)C(=O)N[C@@H](CO)C(=O)N[C@@H](CC(=O)O)C(=O)N[C@@H](Cc1ccc(O)cc1)C(=O)N[C@@H](CO)C(=O)N[C@H](C(=O)N[C@@](C)(CC(C)C)C(=O)N[C@@H](CC(C)C)C(=O)N[C@@H](CC(=O)O)C(=O)N[C@@H](CCCCN)C(=O)N[C@@H](CCCCNC(=O)COCCOCCNC(=O)COCCOCCNC(=O)CC[C@H](NC(=O)CCCCCCCCCCCCCCCCCCC(=O)O)C(=O)O)C(=O)N[C@@H](Cc1c[nH]cn1)C(=O)N[C@@H](CCC(N)=O)C(=O)NC(C)(C)C(=O)N[C@@H](CC(=O)O)C(=O)N[C@@H](Cc1ccccc1)C(=O)N[C@H](C(=O)N[C@@H](CCC(=O)O)C(=O)N[C@@](C)(Cc1ccc(O)cc1)C(=O)N[C@@H](CC(C)C)C(=O)N[C@@H](CC(C)C)C(=O)N[C@@H](CCC(=O)O)C(=O)N[C@@H](C)C(=O)NCC(=O)N1CCC[C@H]1C(=O)N[C@@H](CO)C(=O)N[C@@H](CO)C(=O)NCC(=O)N[C@@H](C)C(=O)N1CCC[C@H]1C(=O)N1CCC[C@H]1C(=O)N1CCC[C@H]1C(=O)N[C@@H](CO)C(N)=O)C(C)C)[C@@H](C)CC
B4: Example 91 (peptide)
peptide: Y[Aib]EGTFISDYSI[αMeL]LDKK([AEEA-AEEA-γGlu-C20 diacid])HQ[Aib]DFVE[αMeY]LLEGGPSSGAPPPS-NH2
modifications: N-terminus assumed
SMILES: CC[C@H](C)[C@H](NC(=O)[C@H](Cc1ccccc1)NC(=O)[C@@H](NC(=O)CNC(=O)[C@H](CCC(=O)O)NC(=O)C(C)(C)NC(=O)[C@@H](N)Cc1ccc(O)cc1)[C@@H](C)O)C(=O)N[C@@H](CO)C(=O)N[C@@H](CC(=O)O)C(=O)N[C@@H](Cc1ccc(O)cc1)C(=O)N[C@@H](CO)C(=O)N[C@H](C(=O)N[C@@](C)(CC(C)C)C(=O)N[C@@H](CC(C)C)C(=O)N[C@@H](CC(=O)O)C(=O)N[C@@H](CCCCN)C(=O)N[C@@H](CCCCNC(=O)COCCOCCNC(=O)COCCOCCNC(=O)CC[C@H](NC(=O)CCCCCCCCCCCCCCCCCCC(=O)O)C(=O)O)C(=O)N[C@@H](Cc1c[nH]cn1)C(=O)N[C@@H](CCC(N)=O)C(=O)NC(C)(C)C(=O)N[C@@H](CC(=O)O)C(=O)N[C@@H](Cc1ccccc1)C(=O)N[C@H](C(=O)N[C@@H](CCC(=O)O)C(=O)N[C@@](C)(Cc1ccc(O)cc1)C(=O)N[C@@H](CC(C)C)C(=O)N[C@@H](CC(C)C)C(=O)N[C@@H](CCC(=O)O)C(=O)NCC(=O)NCC(=O)N1CCC[C@H]1C(=O)N[C@@H](CO)C(=O)N[C@@H](CO)C(=O)NCC(=O)N[C@@H](C)C(=O)N1CCC[C@H]1C(=O)N1CCC[C@H]1C(=O)N1CCC[C@H]1C(=O)N[C@@H](CO)C(N)=O)C(C)C)[C@@H](C)CC
B5: Example 11 (peptide)
peptide: Y[dA]EGTFISDYSILLDKK([AEEA-AEEA-γGlu-C20 diacid])AQQDFVNWLLAQGPSSGAPPPS-NH2
modifications: N-terminus assumed
SMILES: CC[C@H](C)[C@H](NC(=O)[C@H](CO)NC(=O)[C@H](Cc1ccc(O)cc1)NC(=O)[C@H](CC(=O)O)NC(=O)[C@H](CO)NC(=O)[C@@H](NC(=O)[C@H](Cc1ccccc1)NC(=O)[C@@H](NC(=O)CNC(=O)[C@H](CCC(=O)O)NC(=O)[C@@H](C)NC(=O)[C@@H](N)Cc1ccc(O)cc1)[C@@H](C)O)[C@@H](C)CC)C(=O)N[C@@H](CC(C)C)C(=O)N[C@@H](CC(C)C)C(=O)N[C@@H](CC(=O)O)C(=O)N[C@@H](CCCCN)C(=O)N[C@@H](CCCCNC(=O)COCCOCCNC(=O)COCCOCCNC(=O)CC[C@H](NC(=O)CCCCCCCCCCCCCCCCCCC(=O)O)C(=O)O)C(=O)N[C@@H](C)C(=O)N[C@@H](CCC(N)=O)C(=O)N[C@@H](CCC(N)=O)C(=O)N[C@@H](CC(=O)O)C(=O)N[C@@H](Cc1ccccc1)C(=O)N[C@H](C(=O)N[C@@H](CC(N)=O)C(=O)N[C@@H](Cc1c[nH]c2ccccc12)C(=O)N[C@@H](CC(C)C)C(=O)N[C@@H](CC(C)C)C(=O)N[C@@H](C)C(=O)N[C@@H](CCC(N)=O)C(=O)NCC(=O)N1CCC[C@H]1C(=O)N[C@@H](CO)C(=O)N[C@@H](CO)C(=O)NCC(=O)N[C@@H](C)C(=O)N1CCC[C@H]1C(=O)N1CCC[C@H]1C(=O)N1CCC[C@H]1C(=O)N[C@@H](CO)C(N)=O)C(C)C

Target: T2, human glucagon receptor (human, UniProt P47871 26-477)
T2 construct: whole, on cells; Assayed as crude membranes of stably transfected HEK293 cells; also called hGcgR; GcgR
T2 sequence (P47871 26-477): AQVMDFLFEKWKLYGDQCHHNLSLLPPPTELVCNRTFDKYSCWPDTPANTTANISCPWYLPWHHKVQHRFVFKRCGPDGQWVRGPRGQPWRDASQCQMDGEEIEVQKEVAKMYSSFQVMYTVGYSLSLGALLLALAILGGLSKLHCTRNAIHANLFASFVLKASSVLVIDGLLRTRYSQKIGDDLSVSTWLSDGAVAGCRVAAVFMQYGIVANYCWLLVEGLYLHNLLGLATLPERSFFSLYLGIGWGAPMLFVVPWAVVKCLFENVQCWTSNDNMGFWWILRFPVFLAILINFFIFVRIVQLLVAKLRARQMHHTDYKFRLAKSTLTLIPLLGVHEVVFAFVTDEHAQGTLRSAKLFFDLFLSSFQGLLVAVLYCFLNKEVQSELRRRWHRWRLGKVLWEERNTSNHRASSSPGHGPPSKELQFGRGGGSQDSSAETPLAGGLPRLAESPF
Experiment: SPA, displacement of [125I]-Gcg from hGcgR membranes, 0.1% bacitracin
Procedure, shortened: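 Binding buffer: 25 mM HEPES pH 7.4, 2.5 mM CaCl₂, 1 mM MgCl₂, 0.003% Tween-20, protease inhibitors without EDTA. Counted by scintillation after 12 h incubation/settling at room temperature. Four-parameter nonlinear fit; Kᵢ given as geometric mean ± SEM of independent replicates run on different days.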

Binder	Ki [nM]
B1	101
B2	611
B3	112
B4	54.4
B5	163

Target: T3, human GLP-1 receptor (human, UniProt P43220 24-463)
T3 construct: whole, on cells; Assayed as crude membranes of stably transfected HEK293 cells; also called hGLP1R; hGLP-1R
Experiment: SPA, displacement of [125I]-GLP-1 from hGLP-1R membranes, 0.1% bacitracin
Procedure, shortened: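 Binding buffer: 25 mM HEPES pH 7.4, 2.5 mM CaCl₂, 1 mM MgCl₂, 0.1% bacitracin, 0.003% Tween-20, protease inhibitors without EDTA. Four-parameter nonlinear regression; Kᵢ given as geometric mean ± SEM, n = independent replicates run on different days.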

Binder	Ki [nM]
B1	38.1
B2	294
B3	102
B4	37.4
B5	85.9

Target: T1, human glucose-dependent insulinotropic …
Experiment: SPA, displacement of [125I]-GIP from hGIPR membranes, 0.1% bacitracin

Binder	Ki [nM]
B1	0.027
B2	0.072
B3	0.129
B4	0.122
B5	0.0584
